Source: the supplement of paper PMC12764529
± gives the half width of the 95% confidence interval.

Experiments:
[1] = folding stability dG unfold from chymotrypsin proteolysis; higher = more stable
Summary of the method: (§1)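 Sequencing followed digestion of designed mini-proteins with trypsin and chymotrypsin, each at 11 concentrations in threefold dilutions together with a no-protease condition. The mini-proteins were under 80 residues, had no cysteine, sat in a PA-tagged cDNA display construct, and were kept only if AlphaFold2 dimer inter-PAE was above 15. From the counts, Bayesian fitting gave K50, and unfolding free energy was derived against a sequence-predicted unfolded-state K50 and a shared folded-state K50, per protease or combined.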

[2] = folding stability dG unfold (combined trypsin and chymotrypsin); higher = more stable
Summary of the method: as §1

[3] = folding stability dG unfold from trypsin proteolysis; higher = more stable
Summary of the method: as §1

With “MEITITETENGYRVEVKIEITVIDPKTGEPVPLEIPVEAFVPASDPDPEKAAKEAAEKALEEVLKALPEGLS [r1_414_JUSTAS]” the “folding stability dG unfold” value [1] was 1.88 ± 0.091 kcal/mol, the “folding stability dG unfold” value [2] was 1.99 ± 0.19 kcal/mol and the “folding stability dG unfold” value [3] was 2.33 ± 0.21 kcal/mol.

With “MEVKIKVEIVKVEEVEVKKKKDGKEEKFIRIEIKIEVEAKPGLSEEEIKKLAEELAKKLKELGLEVEVKKES [r1_305_TrROS_Hall]” the “folding stability dG unfold” value [1] was 2.15 ± 0.13 kcal/mol, the “folding stability dG unfold” value [2] was 1.96 ± 0.22 kcal/mol and the “folding stability dG unfold” value [3] was 0.993 ± 0.091 kcal/mol.

With “MFKPGTKVTFGDKTVEVPEGDELYIFEGKVFGTSEVEAVLENMSDDAVGYKLVVEDETGKIVKVEEFVFKPS [r1_304_TrMRF]” the “folding stability dG unfold” value [1] was -0.172 ± 0.51 kcal/mol, the “folding stability dG unfold” value [2] was -0.406 ± 0.43 kcal/mol and the “folding stability dG unfold” value [3] was -0.451 ± 0.25 kcal/mol.

With “MIPLTLEYDPEKKVIRLKTPDGKPVIVEAGDKGYRVIIYDPKTGKPTVIPVTEKELLDLAKNPAFNLDLAAS [r1_18_TrMRF]” the “folding stability dG unfold” value [1] was 1.23 ± 0.076 kcal/mol, the “folding stability dG unfold” value [2] was 1.65 ± 0.059 kcal/mol and the “folding stability dG unfold” value [3] was 1.94 ± 0.025 kcal/mol.

With “MKAHVTVVDLEDRYRARIELELPDGRVLVFEFEFDSWEEAIEFIRGLIAALPEDEVEIDHIEFLPPDGDPSS [r1_169_TrMRF]” the “folding stability dG unfold” value [1] was 4.73 ± 0.051 kcal/mol, the “folding stability dG unfold” value [2] was 4.46 ± 0.1 kcal/mol and the “folding stability dG unfold” value [3] was 3.92 ± 0.091 kcal/mol.

With “MKIRVEITVRNPDGEELKIEIVLSLEELEELRKEGKPLTLEELKALIEERARKLAEELDLEVEIKIVEIEPS [r1_174_TrROS_Hall]” the “folding stability dG unfold” value [1] was 5.06 ± 0.89 kcal/mol, the “folding stability dG unfold” value [2] was greater than 6 kcal/mol and the “folding stability dG unfold” value [3] was 4.11 ± 0.35 kcal/mol.

With “MKKVKVTITITVPEEDKEKVKELIEKLKEAVPNVKVTSVEFDEKTGKITIVVEMTEEELEELKKALKEALES [r1_443_TrROS_Hall]” the “folding stability dG unfold” value [1] was 1.47 ± 0.036 kcal/mol, the “folding stability dG unfold” value [2] was 2.06 ± 0.082 kcal/mol and the “folding stability dG unfold” value [3] was 2.78 ± 0.11 kcal/mol.

In the case of “MKPLTPDEVKELAKFIANMIRRRMRENGIKDVEIPVKVEPDPNGWYWINVSITFKYNGKPIGRFPIEIWVRS [r1_364_TrROS]”, the “folding stability dG unfold” value [1] is reported as 3.781 ± 0.019 kcal/mol, the “folding stability dG unfold” value [2] is reported as 3.57 ± 0.074 kcal/mol and the “folding stability dG unfold” value [3] is reported as 3.17 ± 0.045 kcal/mol.

With “MKPLTPEEVKKIAEGIAKEIEKAAKALGIDKVEVPVKIEKLPDGGYKIIIEVKLYKDDKKIGTFPIEIYIDS [r1_364_TrMRF]” the “folding stability dG unfold” value [1] was 3.1 ± 0.14 kcal/mol, the “folding stability dG unfold” value [2] was 2.9 ± 0.39 kcal/mol and the “folding stability dG unfold” value [3] was 3.51 ± 0.34 kcal/mol.

With “MKTIEIEIKLSPEIKEALKEGKPLSLEELVNKIKEEIAKKLGLKEVKVKKIEIKKDENGEIIIKVTIEVKPS [r1_290_TrROS_Hall]” the “folding stability dG unfold” value [1] was 2.77 ± 0.091 kcal/mol, the “folding stability dG unfold” value [2] was 3.31 ± 0.27 kcal/mol and the “folding stability dG unfold” value [3] was 3.9 ± 0.38 kcal/mol.

With “MKTITITVTDAPPGTVTIRVEIEREDGSTIEIEKEITVKPGDTITITLKEDEPYKIKKIEIYHNGKKIEITS [r1_70_TrROS_Hall]” the “folding stability dG unfold” value [1] was 3.81 ± 0.1 kcal/mol, the “folding stability dG unfold” value [2] was 3.76 ± 0.33 kcal/mol and the “folding stability dG unfold” value [3] was 2.58 ± 0.15 kcal/mol.

For “MKVVFTEEELPDAKVRKVFDPETGTITETVTYPSTSYTVTSTATITSFDPETGKVTITTTVSAPPEAGIPAS [r1_234_JUSTAS]”, the “folding stability dG unfold” value [1] was 1.31 ± 0.057 kcal/mol, the “folding stability dG unfold” value [2] was 1.63 ± 0.13 kcal/mol and the “folding stability dG unfold” value [3] was 1.87 ± 0.05 kcal/mol.

For “MKYTLTLTDPTTPTTSTLTVPNDPEKALALLREAKAANPNLTATLTGVTSEEIVEAAKKAGLKDIKPKTAAS [r1_114_JUSTAS]”, the “folding stability dG unfold” value [1] was 0.301 ± 0.27 kcal/mol, the “folding stability dG unfold” value [2] was 0.316 ± 0.27 kcal/mol and the “folding stability dG unfold” value [3] was 0.15 ± 0.13 kcal/mol.

For “MPAISIEEIIKLAKEAGKPAPPTVIVFNYKFGNTTRTLPVPLSEPVSLAEVEAAIKAADPNVTEITLTFVPS [r1_135_JUSTAS]”, the “folding stability dG unfold” value [1] was 1.36 ± 0.12 kcal/mol, the “folding stability dG unfold” value [2] was 1.07 ± 0.16 kcal/mol and the “folding stability dG unfold” value [3] was 0.551 ± 0.088 kcal/mol.

With “MRFEFPLEDGGRVEVEMRPLPDGPVVLDVKITLPNGEEITIPFVFPREEFPDMDMEEIARRVVEEAIRLAKS [r1_92_TrMRF]” the “folding stability dG unfold” value [1] was 5.035 ± 0.038 kcal/mol, the “folding stability dG unfold” value [2] was 4.77 ± 0.058 kcal/mol and the “folding stability dG unfold” value [3] was 3.463 ± 0.033 kcal/mol.

With “MRITLELEDGTRVEIEFERKEDGTLVVRIKVTRKDGKTVEIEVVVRSKDGKITPEELERALREALEELLKKS [r1_124_TrROS_Hall]” the “folding stability dG unfold” value [1] was 4.06 ± 0.33 kcal/mol, the “folding stability dG unfold” value [2] was 4.21 ± 0.38 kcal/mol and the “folding stability dG unfold” value [3] was 4.19 ± 0.24 kcal/mol.

For “MRLRLTFRLPDGTEFRVERVEVLRVEPRGDRVVIPVRAYFTPEERRRLEELIPGLRDRPPLVVEVEIVLTGS [r1_35_TrMRF]”, the “folding stability dG unfold” value [1] was 4.38 ± 0.055 kcal/mol, the “folding stability dG unfold” value [2] was 3.96 ± 0.072 kcal/mol and the “folding stability dG unfold” value [3] was 3.05 ± 0.083 kcal/mol.

For “MRRFEFPETGLVVPVVPSPDGRYRVRIYRPGGELVLEVELPDLPIPEGSDAEIRIPLKDLPPDLVTFVEPES [r1_263_TrMRF]”, the “folding stability dG unfold” value [1] was 1.46 ± 0.09 kcal/mol, the “folding stability dG unfold” value [2] was 1.21 ± 0.11 kcal/mol and the “folding stability dG unfold” value [3] was 0.819 ± 0.054 kcal/mol.
